The test addresses wild-type pro-urokinase (natural activation site Pro-Arg-Phe-Lys-Ile-Ile-Gly-Gly) (human, UniProt P00749 21-431). The test is described as follows: cell-based or functional assay.

B1: purified recombinant MASP-2 (active form) (enzyme, UniProt O00187 16-686, looked up)
chain: TPLGPKWPEPVFGRLASPGFPGEYANDQERRWTLTAPPGYRLRLYFTHFDLELSHLCEYDFVKLSSGAKVLATLCGQESTDTERAPGKDTFYSLGSSLDITFRSDYSNEKPFTGFEAFYAAEDIDECQVAPGEAPTCDHHCHNHLGGFYCSCRAGYVLHRNKRTCSALCSGQVFTQRSGELSSPEYPRPYPKLSSCTYSISLEEGFSVILDFVESFDVETHPETLCPYDFLKIQTDREEHGPFCGKTLPHRIETKSNTVTITFVTDESGDHTGWKIHYTSTAQPCPYPMAPPNGHVSPVQAKYILKDSFSIFCETGYELLQGHLPLKSFTAVCQKDGSWDRPMPACSIVDCGPPDDLPSGRVEYITGPGVTTYKAVIQYSCEETFYTMKVNDGKYVCEADGFWTSSKGEKSLPVCEPVCGLSARTTGGRIYGGQKAKPGDFPWQVLILGGTTAAGALLYDNWVLTAAHAVYEQKHDASALDIRMGTLKRLSPHYTQAWSEAVFIHEGYTHDAGFDNDIALIKLNNKVVINSNITPICLPRKEAESFMRTDDIGTASGWGLTQRGFLARNLMYVDIPIVDHQKCTAAYEKPPYPRGSVTANMLCAGLESGGKDSCRGDSGGALVFLDSETERWFVGGIVSWGSMNCGEAGQYGVYTKVINYIPWIENIISDF
On to B1, for which the “absorbance change at 405 nm (activation of pro-urokinase, read with pyro-Glu-Gly-Arg-pNA)” value is about 2 fold.

Source of the values: patent publication US20080286803A1 (NEDERLANDSE ORGANISATIE VOOR TOEGEPAST …, published 2008).
